From patent US20150246136A1 (Bayer, published 2015)

B1: Example 100, conjugate of anti-mesothelin antibody MF-Ta (antibody, human IgG1, lambda, V domains shown)
VH: QVELVQSGAEVKKPGESLKISCKGSGYSFTSYWIGWVRQAPGKGLEWMGIIDPGDSRTRYSPSFQGQVTISADKSISTAYLQWSSLKASDTAMYYCARGQLYGGTYMDGWGQGTLVTVSS
VL: DIALTQPASVSGSPGQSITISCTGTSSDIGGYNSVSWYQQHPGKAPKLMIYGVNNRPSGVSNRFSGSKSGNTASLTISGLQAEDEADYYCSSYDIESATPVFGGGTKLTVLG
modifications: toxophore-linker on Cys sulfur, sites not given
B2: Example 154, conjugate of anti-mesothelin antibody MF-Ta (antibody, human IgG1, lambda, V domains shown)
VH: B1 VH
VL: B1 VL
modifications: toxophore-linker on Cys sulfur, sites not given
B3: Example 113, conjugate of anti-mesothelin antibody MF-Ta (antibody, human IgG1, lambda, V domains shown)
VH: B1 VH
VL: B1 VL
modifications: toxophore-linker on Lys NH, sites not given
B4: Example 107, conjugate of anti-mesothelin antibody MF-Ta (antibody, human IgG1, lambda, V domains shown)
VH: B1 VH
VL: B1 VL
modifications: toxophore-linker on Cys sulfur, sites not given
B5: Example 143, conjugate of anti-mesothelin antibody MF-Ta (antibody, human IgG1, lambda, V domains shown)
VH: B1 VH
VL: B1 VL
modifications: toxophore-linker on Lys NH, sites not given
B6: Example 129, conjugate of anti-mesothelin antibody MF-Ta (antibody, human IgG1, lambda, V domains shown)
VH: B1 VH
VL: B1 VL
modifications: toxophore-linker on Cys sulfur, sites not given
B7: Example 144, conjugate of anti-mesothelin antibody MF-Ta (antibody, human IgG1, lambda, V domains shown)
VH: B1 VH
VL: B1 VL
modifications: toxophore-linker on Lys NH, sites not given
B8: Example 115, conjugate of anti-mesothelin antibody MF-Ta (antibody, human IgG1, lambda, V domains shown)
VH: B1 VH
VL: B1 VL
modifications: toxophore-linker on Cys sulfur, sites not given
B9: Example 105, conjugate of anti-mesothelin antibody MF-Ta (antibody, human IgG1, lambda, V domains shown)
VH: B1 VH
VL: B1 VL
modifications: toxophore-linker on Lys NH, sites not given
B10: Example 111, conjugate of anti-mesothelin antibody MF-Ta (antibody, human IgG1, lambda, V domains shown)
VH: B1 VH
VL: B1 VL
modifications: toxophore-linker on Cys sulfur, sites not given
B11: Example 142, conjugate of anti-mesothelin antibody MF-Ta (antibody, human IgG1, lambda, V domains shown)
VH: B1 VH
VL: B1 VL
modifications: toxophore-linker on Cys sulfur, sites not given
B12: Example 108, conjugate of anti-mesothelin antibody MF-Ta (antibody, human IgG1, lambda, V domains shown)
VH: B1 VH
VL: B1 VL
modifications: toxophore-linker on Cys sulfur, sites not given
B13: Example 136, conjugate of anti-mesothelin antibody MF-Ta (antibody, human IgG1, lambda, V domains shown)
VH: B1 VH
VL: B1 VL
modifications: toxophore-linker on Lys NH, sites not given
B14: Example 147, conjugate of anti-mesothelin antibody MF-Ta (antibody, human IgG1, lambda, V domains shown)
VH: B1 VH
VL: B1 VL
modifications: toxophore-linker on Lys NH, sites not given
B15: Example 103, conjugate of anti-mesothelin antibody MF-Ta (antibody, human IgG1, lambda, V domains shown)
VH: B1 VH
VL: B1 VL
modifications: toxophore-linker on Cys sulfur, sites not given
B16: Example 135, conjugate of anti-mesothelin antibody MF-Ta (antibody, human IgG1, lambda, V domains shown)
VH: B1 VH
VL: B1 VL
modifications: toxophore-linker on Cys sulfur, sites not given
B17: Example 102, conjugate of anti-mesothelin antibody MF-Ta (antibody, human IgG1, lambda, V domains shown)
VH: B1 VH
VL: B1 VL
modifications: toxophore-linker on Lys NH, sites not given
B18: Example 112, conjugate of anti-mesothelin antibody MF-Ta (antibody, human IgG1, lambda, V domains shown)
VH: B1 VH
VL: B1 VL
modifications: toxophore-linker on Cys sulfur, sites not given
B19: Example 150, conjugate of anti-mesothelin antibody MF-Ta (antibody, human IgG1, lambda, V domains shown)
VH: B1 VH
VL: B1 VL
modifications: toxophore-linker on Lys NH, sites not given
B20: Example 104, conjugate of anti-mesothelin antibody MF-Ta (antibody, human IgG1, lambda, V domains shown)
VH: B1 VH
VL: B1 VL
modifications: toxophore-linker on Lys NH, sites not given
B21: Example 132, conjugate of anti-mesothelin antibody MF-Ta (antibody, human IgG1, lambda, V domains shown)
VH: B1 VH
VL: B1 VL
modifications: toxophore-linker on Lys NH, sites not given
B22: Example 130, conjugate of anti-mesothelin antibody MF-Ta (antibody, human IgG1, lambda, V domains shown)
VH: B1 VH
VL: B1 VL
modifications: toxophore-linker on Cys sulfur, sites not given
B23: Example 153, conjugate of anti-mesothelin antibody MF-Ta (antibody, human IgG1, lambda, V domains shown)
VH: B1 VH
VL: B1 VL
modifications: toxophore-linker on Cys sulfur, sites not given
B24: Example 133, conjugate of anti-mesothelin antibody MF-Ta (antibody, human IgG1, lambda, V domains shown)
VH: B1 VH
VL: B1 VL
modifications: toxophore-linker on Cys sulfur, sites not given
B25: Example 151, conjugate of anti-mesothelin antibody MF-Ta (antibody, human IgG1, lambda, V domains shown)
VH: B1 VH
VL: B1 VL
modifications: toxophore-linker on Cys sulfur, sites not given
B26: Example 138, conjugate of anti-mesothelin antibody MF-Ta (antibody, human IgG1, lambda, V domains shown)
VH: B1 VH
VL: B1 VL
modifications: toxophore-linker on Cys sulfur, sites not given
B27: Example 155, conjugate of anti-mesothelin antibody MF-Ta (antibody, human IgG1, lambda, V domains shown)
VH: B1 VH
VL: B1 VL
modifications: toxophore-linker, coupling residue not stated
B28: Example 134, conjugate of anti-mesothelin antibody MF-Ta (antibody, human IgG1, lambda, V domains shown)
VH: B1 VH
VL: B1 VL
modifications: toxophore-linker on Cys sulfur, sites not given
B29: Example 106, conjugate of anti-mesothelin antibody MF-Ta (antibody, human IgG1, lambda, V domains shown)
VH: B1 VH
VL: B1 VL
modifications: toxophore-linker on Cys sulfur, sites not given
B30: Example 152, conjugate of anti-mesothelin antibody MF-Ta (antibody, human IgG1, lambda, V domains shown)
VH: B1 VH
VL: B1 VL
modifications: toxophore-linker on Lys NH, sites not given
B31: Example 101, conjugate of anti-mesothelin antibody MF-Ta (antibody, human IgG1, lambda, V domains shown)
VH: B1 VH
VL: B1 VL
modifications: toxophore-linker on Cys sulfur, sites not given
B32: Example 156, conjugate of anti-mesothelin antibody MF-Ta (antibody, human IgG1, lambda, V domains shown)
VH: B1 VH
VL: B1 VL
modifications: toxophore-linker, coupling residue not stated
B33: Example 110, conjugate of anti-mesothelin antibody MF-Ta (antibody, human IgG1, lambda, V domains shown)
VH: B1 VH
VL: B1 VL
modifications: toxophore-linker on Cys sulfur, sites not given
B34: Example 141, conjugate of anti-mesothelin antibody MF-Ta (antibody, human IgG1, lambda, V domains shown)
VH: B1 VH
VL: B1 VL
modifications: toxophore-linker on Cys sulfur, sites not given
B35: Example 139, conjugate of anti-mesothelin antibody MF-Ta (antibody, human IgG1, lambda, V domains shown)
VH: B1 VH
VL: B1 VL
modifications: toxophore-linker on Cys sulfur, sites not given
B36: Example 149, conjugate of anti-mesothelin antibody MF-Ta (antibody, human IgG1, lambda, V domains shown)
VH: B1 VH
VL: B1 VL
modifications: toxophore-linker on Lys NH, sites not given
B37: Example 140, conjugate of anti-mesothelin antibody MF-Ta (antibody, human IgG1, lambda, V domains shown)
VH: B1 VH
VL: B1 VL
modifications: toxophore-linker on Lys NH, sites not given
B38: Example 109, conjugate of anti-mesothelin antibody MF-Ta (antibody, human IgG1, lambda, V domains shown)
VH: B1 VH
VL: B1 VL
modifications: toxophore-linker on Cys sulfur, sites not given
B39: Example 137, conjugate of anti-mesothelin antibody MF-Ta (antibody, human IgG1, lambda, V domains shown)
VH: B1 VH
VL: B1 VL
modifications: toxophore-linker on Cys sulfur, sites not given
B40: Example 146, conjugate of anti-mesothelin antibody MF-Ta (antibody, human IgG1, lambda, V domains shown)
VH: B1 VH
VL: B1 VL
modifications: toxophore-linker on Lys NH, sites not given
B41: Example 148, conjugate of anti-mesothelin antibody MF-Ta (antibody, human IgG1, lambda, V domains shown)
VH: B1 VH
VL: B1 VL
modifications: toxophore-linker on Lys NH, sites not given
B42: Example 131, conjugate of anti-mesothelin antibody MF-Ta (antibody, human IgG1, lambda, V domains shown)
VH: B1 VH
VL: B1 VL
modifications: toxophore-linker on Cys sulfur, sites not given
B43: Example 114, conjugate of anti-mesothelin antibody MF-Ta (antibody, human IgG1, lambda, V domains shown)
VH: B1 VH
VL: B1 VL
modifications: toxophore-linker on Cys sulfur, sites not given
B44: Example 145, conjugate of anti-mesothelin antibody MF-Ta (antibody, human IgG1, lambda, V domains shown)
VH: B1 VH
VL: B1 VL
modifications: toxophore-linker on Lys NH, sites not given

Biological target: Mesothelin (SwissProt reference Q13421-3) (Homo sapiens, UniProt Q13421 37-622)
Experiment: cell-based or functional assay

Row | Binder | IC50 (nM), HT29 meso+ cells, MTT proliferation assay
1 | B1 | 2 nM
2 | B2 | 2.2 nM
3 | B3 | 0.4 nM
4 | B4 | 3 nM
5 | B5 | 0.3 nM
6 | B6 | 5.3 nM
7 | B7 | 2.7 nM
8 | B8 | 0.06 nM
9 | B9 | 0.6 nM
10 | B10 | 0.7 nM
11 | B11 | 0.27 nM
12 | B12 | 0.74 nM
13 | B13 | 1.6 nM
14 | B14 | 5.6 nM
15 | B15 | 10 nM
16 | B16 | 0.25 nM
17 | B17 | 7.2 nM
18 | B18 | 0.018 nM
19 | B19 | < 0.1 nM
20 | B20 | 1.8 nM
21 | B21 | 3.3 nM
22 | B22 | 0.13 nM

Row | Binder | IC50 (nM), HT29 meso+ cells, MTT proliferation assay
23 | B23 | 30 nM
24 | B24 | 2.1 nM
25 | B25 | > 1000 nM
26 | B26 | 0.3 nM
27 | B27 | 0.5 nM
28 | B28 | 0.03 nM
29 | B29 | 0.8 nM
30 | B30 | 4.1 nM
31 | B31 | 3 nM
32 | B32 | 4.6 nM
33 | B33 | 0.002 nM
34 | B34 | 43 nM
35 | B35 | 70 nM
36 | B36 | 3.1 nM
37 | B37 | 6.8 nM
38 | B38 | 0.09 nM
39 | B39 | 0.04 nM
40 | B40 | 13 nM
41 | B41 | 425 nM
42 | B42 | 0.09 nM
43 | B43 | 0.6 nM
44 | B44 | 7.4 nM
